Data published in patent publication US20240254204A1 (NATIONAL UNIVERSITY OF SINGAPORE, published 2024).
Numbering of substitutions follows the chain as printed. Several values for one entry are separate records, joined by “and”; a condition that tells them apart may be missing. Equal values may be shown once.

Key:
Assay in all cases: cell-based or functional assay
[1] = molecular target: SARS-COV-2 Alpha full-length spike (SARS-CoV-2 Alpha)
[2] = molecular target: SARS-COV-2 Delta full-length spike (SARS-CoV-2 Delta)
[3] = molecular target: SARS-COV-2 Beta full-length spike (SARS-CoV-2 Beta)
[4] = molecular target: SARS-COV-2 Gamma full-length spike (SARS-CoV-2 Gamma)

Measured: pseudovirus neutralization NT50

B1: Antibody 11 (SS6V11-E7) (antibody, V domains shown)
VH: QVQLQESGPGLVKPSETLSLTCTVSGGFIGPHYWSWVRQPPGKGLEWIGYIYISGSTNYNPSLKSRLTISVDMSKSQFSLTLSSATAADTAVYYCARGGGYLETGPFEYWGQGTLVTVSS
VL: DIVMTQSPLSLPVTPGEPASISCRSSQSLLQNNGYNYLAWYLQKPGQSPQLLIYLSSTRASGVPDRFSGSGSGTDFTLKISRVEAEDVGVYYCMQSLQIPGTFGQGTRLEIK
< 10 ng/ml and < 0.067 nM: all assays above

B2: Antibody 20 (SS6V20-F5) (antibody, V domains shown)
VH: QVQLQESGPGLVKPSETLSLTCTVSGGSIIGYYWSWIRQPPGKGLEWIGYIYFSANTNYNPSLKSRVTMSVDMSKKQFSLKLRSVTAADTAVYYCARGGGYLETGPLDFWGQGILVTVSS
VL: B1 VL with L30M, N32L, K44R, S56G, S81T, S96G
< 10 ng/ml and < 0.067 nM: all assays above

B3: Antibody 13 (SS6V13-F1) (antibody, V domains shown)
VH: QVQLQESGPGLVKPSETLSLTCSVSGVSILGSYWGWIRQPPGTGLQWIGYIYFSENTNYNPSLQSRVTMSLDTSKNLLSLKLSSVTAADTAVYYCARGGGYLETGPFDSWGQGTLVTVSS
VL: B1 VL with S28G, L30V, N32S, S56G, T58N, S96G, I99T
< 10 ng/ml and < 0.067 nM: all assays above
